# Measured values: US20240165165A1, “PHARMACEUTICAL COMPOSITIONS AND THEIR METHODS OF USE” (The Trustees of Indiana University, priority 2021, published 2024)
# B1: CXCL5: chemokine applied to EO771 cells (protein, UniProt P50228 41-132, looked up)
# C-X-C motif chemokine 5: APSSVIAATELRCVCLTVTPKINPKLIANLEVIPAGPQCPTVEVIAKLKNQKEVCLDPEAPVIKKIIQKILGSDKKKAKRNALAVERTASVQ
# B2: ANXA6: annexin A6 (protein, UniProt P14824 2-673, looked up)
# Annexin A6: AKIAQGAMYRGSVHDFPEFDANQDAEALYTAMKGFGSDKESILELITSRSNKQRQEICQNYKSLYGKDLIEDLKYELTGKFERLIVNLMRPLAYCDAKEIKDAISGVGTDEKCLIEILASRTNEQMHQLVAAYKDAYERDLESDIIGDTSGHFQKMLVVLLQGTRENDDVVSEDLVQQDVQDLYEAGELKWGTDEAQFIYILGNRSKQHLRLVFDEYLKTTGKPIEASIRGELSGDFEKLMLAVVKCIRSTPEYFAERLFKAMKGLGTRDNTLIRIMVSRSELDMLDIREIFRTKYEKSLYSMIKNDTSGEYKKALLKLCGGDDDAAGQFFPEAAQVAYQMWELSAVSRVELKGTVCAANDFNPDADAKALRKAMKGIGTDEATIIDIVTHRSNAQRQQIRQTFKSHFGRDLMADLKSEISGDLARLILGLMMPPAHYDAKQLKKAMEGAGTDEKTLIEILATRTNAEIRAINEAYKEDYHKSLEDALSSDTSGHFRRILISLATGNREEGGENRDQAQEDAQVAAEILEIADTPSGDKTSLETRFMTVLCTRSYPHLRRVFQEFIKKTNYDIEHVIKKEMSGDVKDAFVAIVQSVKNKPLFFADKLYKSMKGAGTDEKTLTRVMVSRSEIDLLNIRREFIEKYDKSLHQAIEGDTSGDFMKALLALCGGED
# B3: HSF1: HSF1 recombinant proteins (protein, UniProt P38532 1-525, looked up)
# Heat shock factor protein 1: MDLAVGPGAAGPSNVPAFLTKLWTLVSDPDTDALICWSPSGNSFHVFDQGQFAKEVLPKYFKHNNMASFVRQLNMYGFRKVVHIEQGGLVKPERDDTEFQHPCFLRGQEQLLENIKRKVTSVSTLKSEDIKIRQDSVTRLLTDVQLMKGKQECMDSKLLAMKHENEALWREVASLRQKHAQQQKVVNKLIQFLISLVQSNRILGVKRKIPLMLSDSNSAHSVPKYGRQYSLEHVHGPGPYSAPSPAYSSSSLYSSDAVTSSGPIISDITELAPTSPLASPGRSIDERPLSSSTLVRVKQEPPSPPHSPRVLEASPGRPSSMDTPLSPTAFIDSILRESEPTPAASNTAPMDTTGAQAPALPTPSTPEKCLSVACLDKNELSDHLDAMDSNLDNLQTMLTSHGFSVDTSALLDLFSPSVTMPDMSLPDLDSSLASIQELLSPQEPPRPIEAENSNPDSGKQLVHYTAQPLFLLDPDAVDTGSSELPVLFELGESSYFSEGDDYTDDPTISLLTGTEPHKAKDPTVS
# B4: Calr: recombinant calreticulin (protein, UniProt P14211 18-416, looked up)
# Calreticulin: DPAIYFKEQFLDGDAWTNRWVESKHKSDFGKFVLSSGKFYGDLEKDKGLQTSQDARFYALSAKFEPFSNKGQTLVVQFTVKHEQNIDCGGGYVKLFPSGLDQKDMHGDSEYNIMFGPDICGPGTKKVHVIFNYKGKNVLINKDIRCKDDEFTHLYTLIVRPDNTYEVKIDNSQVESGSLEDDWDFLPPKKIKDPDAAKPEDWDERAKIDDPTDSKPEDWDKPEHIPDPDAKKPEDWDEEMDGEWEPPVIQNPEYKGEWKPRQIDNPDYKGTWIHPEIDNPEYSPDANIYAYDSFAVLGLDLWQVKSGTIFDNFLITNDEAYAEEFGNETWGVTKAAEKQMKDKQDEEQRLKEEEEDKKRKEEEEAEDKEDDDDRDEDEDEEDEKEEDEEESPGQAKDEL
# How the values were obtained:
# [1] = system: EO771 cells; assay: Western blot of proteins in treated tumor cells; type: cell-based, mouse
# Method: Western blot analysis and mass spectrometry. Western blot analysis was conducted using known procedures. Antibodies were used against ANXA1, β-catenin, caspase 3, Lrp5, Lrp6, Runx2, Sclerostin, Snail, TGFβ, NFATc1, cathepsin K (Cell Signaling, Danvers, MA, USA), DMP1, ANXA6, CXCL5 (Abcam, Cambridge, MA, USA), M-CSF, MMP9, OPN, TPM4 (Santa Cruz, Dallas, TX, USA), WISP1 (R&D systems, Minneapolis, MN, USA), β-actin (Sigma, Saint Louis, MO, USA), LIMA1, Trail (Novus, Centennial, CO, USA), p53 and CXCL1 (Invitrogen, Carlsbad, California, USA), and DSP (ProteinTech, Rosemont, IL, USA). The expression levels of Sclerostin and Lrp5 in CM were detected by ELISA (My BioSource, San Diego, CA, USA). Proteins from A5 osteocyte CM, Y4 osteocyte CM, and osteoclast control CM (RAW264.7 cells) were analyzed by the HF Hybrid Quadrupole Orbitrap mass spectrometry. Among 549 identified proteins, 49 proteins presented higher expression levels in A5 CM than Y4 CM and control CM. Among them, 11 proteins (p53; SPARC=osteonectin; TPM1, TPM4=tropomyosin 1 & 4; ANXA1, ANXA6=annexin A1 & A6; FMOD=fibromodulin; OGN=osteoglycin; DSP=desmoplakin; AHNAK=desmoyokin; and LIMA1=[…] domain actin-binding protein 1) were identified as potential tumor suppressors.
# (§1) Western blot analysis and protein array analysis. Western blot analysis was conducted using the procedure previously described. Antibodies against Lrp5, Runx2, Snail, TGFβ, sclerostin, Calr, p-eIF2α, eIF2α (Cell Signaling, Danvers, MA, USA), LIF, Trail (Novus Biologicals, Centennial, CO, USA), MMP9, NFATc1, cathepsin K (Santa Cruz Biotechnology, Dallas, TX, USA), p53, CXCL2, Ppib (Invitrogen, Carlsbad, CA, USA), Hsp90ab1 (Abcam, Cambridge, UK), and β-actin (Sigma, Saint Louis, MO, USA) were used. A proteome profiler mouse XL cytokine array kit (R&D Systems, Minneapolis, MN, USA) was also employed, and the expression of 111 cytokines and chemokines in MSC-derived CM was determined.
# Spheroid assay, plasmid transfection, and Western blot analysis. […]
# [2] = system: 4T1.2 mammary tumor cells; assay: MTT viability assay; type: cell-based, mouse
# Description: (§2) In vitro assays. Cellular viability was examined using an MTT assay (Invitrogen, Carlsbad, CA, USA) with the procedure previously described, as well as an EdU assay with a fluorescence-based cell proliferation kit (Thermo-Fisher, Waltham, MA, USA). The recombinant proteins employed included Filamin A, Pkm, Pdia3, Tpm4, Anxa2, Eef1a1, Cts1, Nme2, Dcn, Calr, Aldoa, Calm1, Tpm3, Ppib, Myh9, Ywhae, Hspa5, Hsp90aa1 (MBS962910, MBS8249600, MBS2010131, MBS145304, MBS2009095, MBS2033168, MBS143355, MBS145412, MBS2557309, MBS2009125, MBS8248528, MBS2018713, MBS144696, MBS2009092, MBS717396, MBS143242, MBS806904, MBS142709; MyBioSource, San Diego, CA, USA), Actin Gamma 1, Actn4, Hspa8, Vimentin (H00000071-P01, H00000081-P01, NBP1-30278, NBP2-35139; Novus, Littleton, CO, USA), and Hsp90ab1 (OPCA05157; Aviva system biology, San Diego, CA, USA). A TRANSWELL® chamber assay was conducted to detect invasive cellular motility, and a wound-healing scratch assay was utilized to evaluate 2-dimensional migratory behavior. The overexpression of Akt, Lrp5, β-catenin, Snail, Calr, and Ppib was conducted by transfecting plasmids (#10841, #115907, #31785, #31697, #51161, #36123; Addgene, Cambridge, MA, USA). […]
# [3] = system: 4T1.2 mammary tumor cells; assay: EdU proliferation assay; type: cell-based, mouse
# Method: EdU assay. Approximately 2,000 cells were seeded in 96-well plates on day 1. CM was added on day 2 and cellular proliferation was examined using a fluorescence-based cell proliferation kit (CLICK-IT™ EDU ALEXA FLUOR™ 488 Imaging Kit; Thermo-Fisher, Waltham, MA, USA) on day 4. After fluorescent labeling, the number of fluorescently labeled cells was counted and the ratio to the total number of cells was determined.
# as §2, with “USA).” for “USA). A TRANSWELL® chamber assay was conducted to detect invasive cellular motility, and a wound-healing scratch assay was utilized to evaluate 2-dimensional migratory behavior. The overexpression of Akt, Lrp5, β-catenin, Snail, Calr, and Ppib was conducted by transfecting plasmids (#10841, #115907, #31785, #31697, #51161, #36123; Addgene, Cambridge, MA, USA).”
# [4] = system: 4T1.2 mammary tumor cells; assay: TRANSWELL invasion assay; type: cell-based, mouse
# Description: as §2
# [5] = system: 4T1.2 cells; assay: Western blot of proteins in treated tumor cells; type: cell-based, mouse
# Method: as §1
# [6] = system: tumor cells (MDA-MB-231, 4T1.2, EO771) vs non-tumor cells (MSCs, MLO-A5 osteocytes); assay: MTT-based tumor selectivity (MSC CMs, Calr, Ppib); type: cell-based; conditions: (reduction in MTT viability of tumor cells)/(reduction in non-tumor cells)
# Method: Tumor-selective inhibition by MSC CMs and Calr. […] The inhibitory ratio was defined sing MTT-based viability as (reduction in MTT-based viability of tumor cells)/(reduction in MTT-based viability of non-tumor cells). […] Using three tumor cells (MDA-MB-231, 4T1.2, and EO771) and two non-tumor cells (MSCs, and MLO-A5 osteocytes), tumor selectivity for Lrp5 CM, Akt CM, Calr, and Ppib (FIG. 22) was determined. […] Akt CM also presented the tumor selectivity of 2.41±0.70.
molecule,measurement,setting,value
B1,"tumor-promoting/tumorigenic proteins (Lrp5, MMP9, Runx2, TGFβ, Snail, IL1β etc.) in EO771 cells",[1],increased
B2,"tumor-promoting/tumorigenic proteins (Lrp5, MMP9, Runx2, TGFβ, Snail, IL1β etc.) in EO771 cells",[1],reduced
B3,MTT-based viability of 4T1.2 cells,[2],reduced
B4,EdU-based proliferation of 4T1.2 cells,[3],significantly inhibited
same,TRANSWELL invasion of 4T1.2 cells,[4],significantly inhibited
same,MTT-based viability of 4T1.2 cells,[2],Significant reduction
same,phosphorylation level of eIF2α in 4T1.2 cells,[5],elevated
same,"tumor-promoting genes (Lrp5, MMP9, Runx2, TGFβ, Snail) in 4T1.2 cells",[5]; Western blot,suppressed
same,tumor selectivity,[6],higher tumor selectivity than Ppib
